Where two headings read alike, the source gives them in different places.

As a reminder, the Kd is the concentration at which binding is half-saturated.

The target in test [1] is Mouse CD44 extracellular domain (mouse) (UniProt P15379). Kind of test: ITC. A general note: ITC needs no label: the signal is the heat of the interaction.
The target of test [2] is Human CD44 extracellular domain (human) (UniProt P16070). The test is described as follows: ITC.
The target in test [3] is Biotinylated avi-tagged human TβRI (human) (UniProt P36897). The test is described as follows: SPR.
Sequence of UniProt P36897 (P36897 34-126): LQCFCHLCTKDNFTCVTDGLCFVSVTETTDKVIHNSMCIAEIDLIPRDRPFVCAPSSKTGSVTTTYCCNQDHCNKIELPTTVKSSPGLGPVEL
Test [4] shares this target. The test is described as follows: SPR. This is another data set of the same source. In general terms: In SPR one partner is held on a chip, and binding of the other changes the refractive index at the surface.
Test [5] deals with Biotinylated avi-tagged human TβRII (human) (UniProt P37173). The test is described as follows: SPR.
Sequence of UniProt P37173 (P37173 23-166): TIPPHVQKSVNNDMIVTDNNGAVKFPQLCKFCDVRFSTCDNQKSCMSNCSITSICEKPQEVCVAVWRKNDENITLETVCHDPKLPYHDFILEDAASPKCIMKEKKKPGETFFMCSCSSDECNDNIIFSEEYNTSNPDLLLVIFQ

Sequence of UniProt P15379 (P15379 23-685): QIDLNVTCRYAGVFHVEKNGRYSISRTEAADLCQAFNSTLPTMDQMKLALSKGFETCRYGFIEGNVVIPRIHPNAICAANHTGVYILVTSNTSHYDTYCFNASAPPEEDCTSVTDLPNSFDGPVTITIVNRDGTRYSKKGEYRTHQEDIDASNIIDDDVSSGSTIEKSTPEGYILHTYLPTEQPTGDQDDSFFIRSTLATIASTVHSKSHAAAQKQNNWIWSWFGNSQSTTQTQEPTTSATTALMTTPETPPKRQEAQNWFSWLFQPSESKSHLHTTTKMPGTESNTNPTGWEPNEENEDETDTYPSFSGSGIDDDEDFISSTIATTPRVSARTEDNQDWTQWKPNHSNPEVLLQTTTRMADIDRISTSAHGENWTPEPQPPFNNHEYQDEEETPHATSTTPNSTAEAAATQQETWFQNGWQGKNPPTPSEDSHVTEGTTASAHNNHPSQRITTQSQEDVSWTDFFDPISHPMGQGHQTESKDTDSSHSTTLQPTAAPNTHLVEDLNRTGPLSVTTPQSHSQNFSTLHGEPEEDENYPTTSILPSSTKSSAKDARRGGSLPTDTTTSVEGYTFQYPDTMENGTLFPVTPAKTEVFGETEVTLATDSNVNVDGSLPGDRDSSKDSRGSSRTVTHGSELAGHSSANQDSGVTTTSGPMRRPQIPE
Sequence of UniProt P16070 (P16070 21-649): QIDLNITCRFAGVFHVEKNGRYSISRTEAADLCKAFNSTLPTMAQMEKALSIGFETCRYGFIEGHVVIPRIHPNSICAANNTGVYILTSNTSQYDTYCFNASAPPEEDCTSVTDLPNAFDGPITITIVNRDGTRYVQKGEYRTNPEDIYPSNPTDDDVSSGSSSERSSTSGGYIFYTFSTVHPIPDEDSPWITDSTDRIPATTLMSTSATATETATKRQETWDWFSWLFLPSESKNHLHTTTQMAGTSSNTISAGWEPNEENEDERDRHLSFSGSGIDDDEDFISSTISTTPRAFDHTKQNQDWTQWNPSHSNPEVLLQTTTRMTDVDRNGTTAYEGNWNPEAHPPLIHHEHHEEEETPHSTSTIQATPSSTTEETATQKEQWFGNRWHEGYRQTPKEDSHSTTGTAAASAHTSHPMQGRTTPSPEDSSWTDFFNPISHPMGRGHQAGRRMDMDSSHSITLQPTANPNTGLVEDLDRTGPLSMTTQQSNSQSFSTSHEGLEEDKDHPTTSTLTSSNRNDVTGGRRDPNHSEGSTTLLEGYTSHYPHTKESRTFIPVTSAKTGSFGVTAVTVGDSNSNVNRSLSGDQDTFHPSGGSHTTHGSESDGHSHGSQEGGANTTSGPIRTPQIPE

For the substance TGM1 D4-5 fragment (domain or fragment), the Kd is 62 nM in test [1] and 140 nM in test [2].

Turning to “TGM1 full-length recombinant protein (natural protein)”, the Kd in test [3] amounted to 70 nM.

Take “TGM4 D4-5 recombinant protein (domain or fragment)”: the dissociation constant (Kd) is 20 nM in test [1] and 56 nM in test [2].

As for “TGM4 full-length recombinant protein (natural protein)”, the Kd was 3 to 5 nM in test [4], 116 µM in test [5] and 3.2 nM in test [3].

These data come from paper PMC10680678.
